Laboratory results reported in the Immune Epitope Database (IEDB).

Assays:
[1] = target: HLA-A*02:01; assay: IEDB peptide-MHC binding, purified MHC/direct/fluorescence; filed as Kd, often an IC50 or EC50 that approximates it; ≥ and ≤ were set here for values at or beyond the usual limits of such assays
[2] = target: HLA-A*02:03; assay: as above; settings: source organism: Variola virus
[3] = target: HLA-A*02:06; assay: as above
[4] = target: HLA-A*69:01; assay: as above; settings: source organism: Camelpox virus CMS
[5] = target: HLA-A*02:11; assay: as above; settings: source organism: Entamoeba histolytica HM-1:IMSS
[6] = target: HLA-A*02:12; assay: as above; settings: source organism: Entamoeba histolytica HM-1:IMSS
[7] = target: HLA-A*02:16; assay: as above; settings: source organism: Entamoeba histolytica HM-1:IMSS
[8] = target: HLA-A*02:19; assay: as above; settings: source organism: Entamoeba histolytica HM-1:IMSS
[9] = target: HLA-A*03:01; assay: as above; settings: source organism: Entamoeba histolytica HM-1:IMSS
[10] = target: HLA-A*23:01; assay: as above; settings: source organism: Entamoeba histolytica HM-1:IMSS
[11] = target: HLA-A*24:03; assay: as above; settings: source organism: Entamoeba histolytica HM-1:IMSS
[12] = target: HLA-A*26:01; assay: as above; settings: source organism: Entamoeba histolytica HM-1:IMSS
[13] = target: HLA-A*29:02; assay: as above; settings: source organism: Entamoeba histolytica HM-1:IMSS
[14] = target: HLA-B*15:01; assay: as above; settings: source organism: Entamoeba histolytica HM-1:IMSS
[15] = target: HLA-B*15:17; assay: as above; settings: source organism: Entamoeba histolytica HM-1:IMSS
[16] = target: HLA-B*27:03; assay: as above; settings: source organism: Entamoeba histolytica HM-1:IMSS
[17] = target: HLA-B*39:01; assay: as above; settings: source organism: Entamoeba histolytica HM-1:IMSS
[18] = target: HLA-B*40:01; assay: as above; settings: source organism: Entamoeba histolytica HM-1:IMSS
[19] = target: HLA-B*46:01; assay: as above; settings: source organism: Entamoeba histolytica HM-1:IMSS
[20] = target: HLA-B*51:01; assay: as above; settings: source organism: Entamoeba histolytica HM-1:IMSS
[21] = target: HLA-B*57:01; assay: as above; settings: source organism: Entamoeba histolytica HM-1:IMSS
[22] = target: HLA-A*01:01; assay: IEDB peptide-MHC binding, purified MHC/competitive/fluorescence; filed as Kd, often an IC50 or EC50 that approximates it; ≥ and ≤ were set here for values at or beyond the usual limits of such assays; settings: source organism: Entamoeba histolytica HM-1:IMSS
[23] = target: HLA-A*11:01; assay: as above; settings: source organism: Entamoeba histolytica HM-1:IMSS
[24] = target: HLA-A*30:01; assay: as above; settings: source organism: Entamoeba histolytica HM-1:IMSS
[25] = target: HLA-A*30:02; assay: as above; settings: source organism: Entamoeba histolytica HM-1:IMSS
[26] = target: HLA-A*66:01; assay: as above; settings: source organism: Entamoeba histolytica HM-1:IMSS
[27] = target: HLA-B*07:02; assay: as above; settings: source organism: Entamoeba histolytica HM-1:IMSS
[28] = target: HLA-B*08:01; assay: as above; settings: source organism: Entamoeba histolytica HM-1:IMSS
[29] = target: HLA-B*14:02; assay: as above; settings: source organism: Entamoeba histolytica HM-1:IMSS
[30] = target: HLA-B*27:05; assay: as above; settings: source organism: Entamoeba histolytica HM-1:IMSS
[31] = target: HLA-B*44:02; assay: as above; settings: source organism: Entamoeba histolytica HM-1:IMSS
[32] = target: HLA-B*53:01; assay: as above; settings: source organism: Entamoeba histolytica HM-1:IMSS
[33] = target: HLA-B*58:01; assay: as above; settings: source organism: Entamoeba histolytica HM-1:IMSS
[34] = source organism: Entamoeba histolytica HM-1:IMSS

## DLYDMIHNV
[1]; source organism: Camelpox virus CMS
  Kd: 0.0159 µM
[2]
  Kd: 0.006 µM
[3]; source organism: Variola virus
  Kd: 0.076 µM
[4]
  Kd: 0.002 µM

## IESNPLFPV
[1]; [34]
  Kd: ≥ 20 µM
[3]; [34]
  Kd: 0.034 µM
[5]
  Kd: ≥ 20 µM
[6]
  Kd: 0.922 µM
[7]
  Kd: ≥ 20 µM
[8]
  Kd: ≥ 20 µM
[9]
  Kd: ≥ 20 µM
[10]
  Kd: ≥ 20 µM
[11]
  Kd: ≥ 20 µM
[12]
  Kd: ≥ 20 µM
[13]
  Kd: ≥ 20 µM
[14]
  Kd: ≥ 20 µM
[15]
  Kd: ≥ 20 µM
[16]
  Kd: ≥ 20 µM
[17]
  Kd: ≥ 20 µM
[18]
  Kd: 0.051 µM
[19]
  Kd: ≥ 20 µM
[20]
  Kd: ≥ 20 µM
[21]
  Kd: ≥ 20 µM
[22]
  Kd: ≥ 5 µM
[23]
  Kd: ≥ 5 µM
[24]
  Kd: ≥ 5 µM
[25]
  Kd: ≥ 5 µM
[26]
  Kd: ≥ 5 µM
[27]
  Kd: ≥ 5 µM
[28]
  Kd: ≥ 5 µM
[29]
  Kd: ≥ 5 µM
[30]
  Kd: ≥ 5 µM
[31]
  Kd: ≥ 5 µM
[32]
  Kd: ≥ 5 µM
[33]
  Kd: ≥ 5 µM
